In PMC3161515 (Molecular cell, 2011):
Each block holds one binder with its values, some of them ahead of it.

Tests used:
[1] = target: tetramethylrhodamine labeled Mud peptide (TMR-Mud) (Drosophila); assay: fluorescence polarisation
[2] = target: T1, YFP-ΔGL1,2 Pins-CFP fusion protein (Pins FRET biosensor) (Drosophila, UniProt Q9VB22 1-658, R486F | R570F); assay: FRET or BRET
T1 sequence (looked up): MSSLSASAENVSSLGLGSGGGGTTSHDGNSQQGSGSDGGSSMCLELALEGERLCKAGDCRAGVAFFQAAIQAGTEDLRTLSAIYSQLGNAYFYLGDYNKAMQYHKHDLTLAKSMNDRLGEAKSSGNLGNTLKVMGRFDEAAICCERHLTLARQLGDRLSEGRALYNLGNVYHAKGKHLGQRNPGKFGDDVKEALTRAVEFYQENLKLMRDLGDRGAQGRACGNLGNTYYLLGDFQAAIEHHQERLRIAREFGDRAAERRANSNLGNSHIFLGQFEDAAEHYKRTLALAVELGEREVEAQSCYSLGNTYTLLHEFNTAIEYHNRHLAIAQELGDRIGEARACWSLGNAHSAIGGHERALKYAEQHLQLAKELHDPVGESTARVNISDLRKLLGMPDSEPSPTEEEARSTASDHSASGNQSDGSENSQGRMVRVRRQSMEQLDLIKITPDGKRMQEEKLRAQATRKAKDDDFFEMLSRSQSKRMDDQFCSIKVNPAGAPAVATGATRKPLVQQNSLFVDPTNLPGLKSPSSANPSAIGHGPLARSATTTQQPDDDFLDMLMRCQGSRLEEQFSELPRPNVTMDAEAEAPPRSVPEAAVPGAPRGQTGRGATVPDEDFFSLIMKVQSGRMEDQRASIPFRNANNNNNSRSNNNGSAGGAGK

Pins activation (%) [1]: 85%
B1: ΔGL1,2 Pins (R486F and R570F) (natural protein)
chain: T1 sequence (looked up)

Kd [2]: 3.4 ± 0.3 µM
B2: heterotrimeric G-protein alpha subunit Gαi, GDP-loaded (natural protein, UniProt P20353 1-355, looked up)
chain: MGCAVSTARDKEAIERSKNIDRALRAEGERAASEVKLLLLGAGESGKSTIVKQMKIIHDTGYSQEECEEYRRVVFSNTVQSLMVIIRAMGRLKIEFADPSRTDIARQFFTHASAADEGILLPEIVLLMKKLWADGGVQQSFARSREYQLNDSAGYYLNSLDRIAQPNYIPTQQDVLRTRVKTTGIIETHFSCKQLHFKLFDVGGQRSERKKWIHCFEGVTAIIFCVALSGYDLVLAEDEEMNRMIESLKLFDSICNSKWFVETSIILFLNKKDLFEEKIKRSPLTICFPEYTGTNTFEEAANYIRMKFENLNKRKDQKEIYTHLTCATDTNNVKFVFDAVTDVIIKNNLKQIGLF
